This passage reports protein stability index results from the supplement of paper PMC10567573.

± gives the standard deviation.

A short description of the data set: protein stability index of a GFP-peptide fusion (GPS, HEK-293T) (PSI 1-6); higher = more stable. Conditions: c terminus: a fixed tail appended.
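Note: 24-mer peptide tiles fused after GFP, lentivirally expressed, FACS-sorted into six equal bins by GFP/DsRed ratio, decoded by Illumina sequencing, PSI is the read-weighted mean bin number.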

Consider VMSIPDVIRLKQEQHVHNEKSVLK [PRKX], for which the protein stability index runs as follows: (treatment: DMSO) 4.18 ± 0.15; (treatment: MLN4924 1 uM, 8 h) 4.25 ± 0.12.

Consider VNEMCPNITRIYNIGKSHQGLKLY [CPXM2], for which the protein stability index stood at 2.52 ± 0.35 (treatment: DMSO) and 2.57 ± 0.5 (treatment: MLN4924 1 uM, 8 h).

Take VNLEEIPGEGLLISWAFTDRPDLS [C2CD2L]: the protein stability index reads like this: (treatment: DMSO) 2.14 ± 0.15; (treatment: MLN4924 1 uM, 8 h) 2.08 ± 0.23.

For the sequence VPQALSATTYKHGVLTRKTHADMD [PSD2], the protein stability index by setting is: (treatment: DMSO) 4.47 ± 0.18; (treatment: MLN4924 1 uM, 8 h) 4.56 ± 0.12.

Take VPVPPAAAPPPPATPIVPVVPPTP [BRD3]: the protein stability index is, setting by setting: (treatment: DMSO) 4.75 ± 0.43; (treatment: MLN4924 1 uM, 8 h) 4.75 ± 0.16.

Regarding VQDWYHFHYVDILALLPAAWEDSH [SCNN1D], the protein stability index (treatment: DMSO) amounted to 2.77 ± 0.61 and the protein stability index (treatment: MLN4924 1 uM, 8 h) was determined as 2.67 ± 0.67.

For VQELLPAACLLQLKGVKQACCEFL [KLHL12], the protein stability index by setting is: (treatment: DMSO) 2.27 ± 0.28; (treatment: MLN4924 1 uM, 8 h) 1.81 ± 0.37.

Take VQEMRNKIREQNLQDIKTAGPQSQ [ADD1]: the protein stability index (treatment: DMSO) amounted to 4.98 ± 0.34 and the protein stability index (treatment: MLN4924 1 uM, 8 h) was found to be 5.1 ± 0.1.

VQTEDQYQFSYRAALEYLGSFDHY [PTPRD] displayed a protein stability index (treatment: DMSO) of 2.22 ± 0.26 and a protein stability index (treatment: MLN4924 1 uM, 8 h) of 2.51 ± 0.22.

With VRGLLASLFAFKSFRENWQRAWVR [C2CD2L], the protein stability index is 2.3 ± 0.59 (treatment: DMSO) and 2.61 ± 0.28 (treatment: MLN4924 1 uM, 8 h).

Take VRRGLAGATTLGDMIYVSGGFDGS [KLHL12]: the protein stability index by setting is: (treatment: DMSO) 2.94 ± 0.56; (treatment: MLN4924 1 uM, 8 h) 2.87 ± 0.15.

Sequence VSDRLAPGAPRGNPPKASAAPDCT [MYCL] displayed a protein stability index (treatment: DMSO) of 4.94 ± 0.22 and a protein stability index (treatment: MLN4924 1 uM, 8 h) of 4.95 ± 0.19.

VSGLDSSYLREQMLNEPLVREIVK [GAN]: the protein stability index by setting is: (treatment: DMSO) 3.14 ± 0.26; (treatment: MLN4924 1 uM, 8 h) 2.96 ± 0.25.

For VSLGATGGPPAGPGGVYAGPEPPP [JUNB], the protein stability index was found to be 4.61 ± 0.094 (treatment: DMSO) and 4.46 ± 0.31 (treatment: MLN4924 1 uM, 8 h).

On to VSVNAQTLDGRTPLHLAAQRGHYR [RIPK4], for which the protein stability index worked out at 3.76 ± 0.29 (treatment: DMSO) and 3.77 ± 0.58 (treatment: MLN4924 1 uM, 8 h).

Sequence VTSNGSIGRDPPAETQPQNPPAQP [CLPTM1] yielded a protein stability index (treatment: DMSO) of 5.41 ± 0.27 and a protein stability index (treatment: MLN4924 1 uM, 8 h) of 5.41 ± 0.15.

Turning to VVETINAAIGVTTSPVLPSLIQLL [HACD3], the protein stability index turned out to be 2.89 ± 0.74 (treatment: DMSO) and 2.81 ± 0.4 (treatment: MLN4924 1 uM, 8 h).

On to VVLLQGAELLLAARLLGALAARSG [TSPAN10], for which the protein stability index was determined as 3.52 ± 0.57 (treatment: DMSO) and 2.76 ± 0.59 (treatment: MLN4924 1 uM, 8 h).

On to VVLSDGPALHPAHAPQISYTGPSS [NCK2], for which the protein stability index runs as follows: (treatment: DMSO) 3.13 ± 0.37; (treatment: MLN4924 1 uM, 8 h) 3.38 ± 0.17.

For the sequence VWVTHEEMETLETSTKTDSEEGSW [PPFIA4], the protein stability index reads like this: (treatment: DMSO) 4.19 ± 0.29; (treatment: MLN4924 1 uM, 8 h) 4.68 ± 0.22.

For the sequence WDLRMKLHDRGAQVIHPQEFRRWR [DNAAF3], the protein stability index is 2.77 ± 0.35 (treatment: DMSO) and 3.02 ± 0.28 (treatment: MLN4924 1 uM, 8 h).

Consider WGYIRYSGQYRELGGAIDFGAAYV [ATL3], for which the protein stability index amounted to 2.56 ± 0.68 (treatment: DMSO) and 2.53 ± 0.69 (treatment: MLN4924 1 uM, 8 h).

Take WIKEEAAERYLYFPNWAMALLITL [SLC6A17]: the protein stability index (treatment: DMSO) was 2.67 ± 0.79 and the protein stability index (treatment: MLN4924 1 uM, 8 h) turned out to be 2.81 ± 0.57.

For the sequence WKYALDMQQSNLDPLSPMTASSLL [FEM1C], the protein stability index reads like this: (treatment: DMSO) 2.68 ± 0.19; (treatment: MLN4924 1 uM, 8 h) 2.84 ± 0.42.

With WMEVLVLGVAQRSLPLQDELAFAE [ESRRA], the protein stability index is, setting by setting: (treatment: DMSO) 3.47 ± 0.63; (treatment: MLN4924 1 uM, 8 h) 2.64 ± 0.97.

Take WRKRFRPREHHGRGGMLSASAETL [PPFIA4]: the protein stability index by setting is: (treatment: DMSO) 3.15 ± 0.22; (treatment: MLN4924 1 uM, 8 h) 3.26 ± 0.056.

WSLYPSDSQVSEEVKTRHSEKSQR [CHGB] yielded a protein stability index (treatment: DMSO) of 4.78 ± 0.17 and a protein stability index (treatment: MLN4924 1 uM, 8 h) of 4.8 ± 0.19.

As to WYVCRTQGVEGDHCVTSDPATSPL [TRIM35], the protein stability index is, setting by setting: (treatment: DMSO) 3.15 ± 0.18; (treatment: MLN4924 1 uM, 8 h) 2.98 ± 0.29.

Consider YADHNYGARPPPTPPASPPPSVLI [KMT2E], for which the protein stability index by setting is: (treatment: DMSO) 3.06 ± 0.32; (treatment: MLN4924 1 uM, 8 h) 3.34 ± 0.4.

YALRAYLGYQAVPSGSSGSLSTSS [CEBPB] displayed a protein stability index (treatment: DMSO) of 2.23 ± 0.28 and a protein stability index (treatment: MLN4924 1 uM, 8 h) of 2.36 ± 0.3.

For YDTFHTVADMMYFCQMLAVVETIN [HACD3], the protein stability index reads like this: (treatment: DMSO) 3.08 ± 0.35; (treatment: MLN4924 1 uM, 8 h) 3.17 ± 0.64.

YEEEFDYETESETESEIESETDFE [GNAS]: the protein stability index by setting is: (treatment: DMSO) 5.12 ± 0.24; (treatment: MLN4924 1 uM, 8 h) 5.11 ± 0.16.

Consider YETKYVVLSYLGLLSQEKLQEQHL [BCL2L13], for which the protein stability index reads like this: (treatment: DMSO) 2.63 ± 0.49; (treatment: MLN4924 1 uM, 8 h) 2.62 ± 0.46.

The sequence YFSQVPVLASFILDDGEIDEIRWK [IQUB] showed a protein stability index (treatment: DMSO) of 2.25 ± 0.72 and a protein stability index (treatment: MLN4924 1 uM, 8 h) of 2.22 ± 0.28.

Take YGRFIRWLNKEKGIFKIEDSAQVA [SPDEF]: the protein stability index (treatment: DMSO) worked out at 2.37 ± 0.35 and the protein stability index (treatment: MLN4924 1 uM, 8 h) was 2.48 ± 0.2.

For YGSIHGPTDYQVNIQIIEYEKKQT [BTBD1], the protein stability index was found to be 2.96 ± 0.48 (treatment: DMSO) and 3.28 ± 0.33 (treatment: MLN4924 1 uM, 8 h).

On to YHRRHNPKTNEDFEFLYNALEFWR [IQUB], for which the protein stability index reads like this: (treatment: DMSO) 1.86 ± 0.36; (treatment: MLN4924 1 uM, 8 h) 2.61 ± 0.82.

For the sequence YIIQQGGWGTVFSLESEEEEYPGI [BCL2L13], the protein stability index runs as follows: (treatment: DMSO) 2.46 ± 0.36; (treatment: MLN4924 1 uM, 8 h) 2.9 ± 0.36.

Regarding YLQDHEKKLRLVFKSLDKKNDGRI [SLC25A25], the protein stability index stood at 3.3 ± 0.13 (treatment: DMSO) and 3.43 ± 0.41 (treatment: MLN4924 1 uM, 8 h).

Consider YLRKGRGETRICKIYDSPCLPEAE [RAD51], for which the protein stability index is 3.65 ± 0.22 (treatment: DMSO) and 3.83 ± 0.28 (treatment: MLN4924 1 uM, 8 h).

Consider YNMAPSALDSADLPPPSALKKGSK [NFE2L1], for which the protein stability index is, setting by setting: (treatment: DMSO) 5.26 ± 0.16; (treatment: MLN4924 1 uM, 8 h) 5.13 ± 0.3.

Consider YPDQSPSEDWTMEERFRPLTFHGL [CLCN6], for which the protein stability index (treatment: DMSO) was determined as 3.23 ± 0.18 and the protein stability index (treatment: MLN4924 1 uM, 8 h) was found to be 3.37 ± 0.18.

YRCIREARYTMPSSLLAPAKHLIA [PLK2] came in with a protein stability index (treatment: DMSO) of 2.56 ± 0.54 and a protein stability index (treatment: MLN4924 1 uM, 8 h) of 2.48 ± 0.18.

For YRLGYFDDALEDFKKVLDLNPGFQ [TTC32], the protein stability index by setting is: (treatment: DMSO) 2.59 ± 0.2; (treatment: MLN4924 1 uM, 8 h) 2.41 ± 0.41.

Regarding YSAPPGDPLSTNYSLAPNTPINQN [NFE2L1], the protein stability index reads like this: (treatment: DMSO) 4.48 ± 0.27; (treatment: MLN4924 1 uM, 8 h) 4.54 ± 0.2.

Turning to YSGTFALIGAAAFLGGVVRMTISL [CLCN6], the protein stability index came to 3.78 ± 0.31 (treatment: DMSO) and 2.86 ± 0.15 (treatment: MLN4924 1 uM, 8 h).

YSIISLLLKDKVRERIQILKTSEV [PTPN9] registered a protein stability index (treatment: DMSO) of 2.9 ± 1.2 and a protein stability index (treatment: MLN4924 1 uM, 8 h) of 2.44 ± 0.31.

With YSPEALASIQNHVRKREAPAPEAE [EFHC1], the protein stability index reads like this: (treatment: DMSO) 4.92 ± 0.19; (treatment: MLN4924 1 uM, 8 h) 5.06 ± 0.2.

As to YVDSPALTNIWMARTCAKQNINAP [C22orf31], the protein stability index is, setting by setting: (treatment: DMSO) 3 ± 0.59; (treatment: MLN4924 1 uM, 8 h) 2.36 ± 0.24.

As to YVERKNSLKKGSLVKNLKDTLGLG [NCK2], the protein stability index was 2.85 ± 0.34 (treatment: DMSO) and 3.13 ± 0.28 (treatment: MLN4924 1 uM, 8 h).

Turning to YYLCGFCPAELFTNTRSDLDVFGR [LUC7L3], the protein stability index is 2.26 ± 0.25 (treatment: DMSO) and 2.04 ± 0.21 (treatment: MLN4924 1 uM, 8 h).
